The target in series [1] is T1, PV-3C main protease (Poliovirus, UniProt P03300 1566-1748). Nature of the series: NMR (SOFAST-HMQC CSP); 3C:RNA 1:0.5. The conditions noted are these: protein: recombinant; tags: SUMO tag cleaved by ULP-1; 15N-labeled for NMR.
In series [2] the target is T1, PV-3C main protease. As to the kind of experiment: NMR (SOFAST-HMQC peak loss). To be noted: protein: recombinant; tags: SUMO tag cleaved by ULP-1; 15N-labeled for NMR.

T1 sequence (P03300 1566-1748): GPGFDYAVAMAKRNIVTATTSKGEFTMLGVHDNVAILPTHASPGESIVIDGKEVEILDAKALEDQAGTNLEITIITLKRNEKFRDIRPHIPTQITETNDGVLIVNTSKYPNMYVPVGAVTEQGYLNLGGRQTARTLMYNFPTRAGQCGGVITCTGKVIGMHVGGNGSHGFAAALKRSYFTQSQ

Regarding GGCGGCGUACUCCGG (ssRNA) [RNA-1], the binding result with PV-3C main protease [1] is “binds”. Regarding CAUACUGUUGUAGGGGAA (ssRNA) [RNA-2], the binding result in the series with PV-3C main protease [2] is “binds”.

Values taken from PMC12656920.
